The source of these data is patent publication CN111592595A (UNIV NANJING MEDICAL, dated 2020).

One assay addresses T1, SARS-Cov-1-RBD-hFc蛋白 (SARS-Cov-1, UniProt P59594 306-527).
T1 construct: domain: RBD
The assay can be described thus: phage ELISA on coated antigen, anti-M13-HRP detection.

The target in the next assay is SARS-Cov-2-RBD-his蛋白 (SARS-Cov-2, UniProt P0DTC2 319-541).
The target of assay [1] is SARS-Cov-2 spike (on lentiviral pseudovirus) (SARS-Cov-2, UniProt P0DTC2 14-1273). The assay can be described thus: cell-based or functional assay.

B1: 4A3噬菌体 (4A3 scFv displayed on phage) (scFv)
scFv: EVQLLESGGGLVQPGGSLRLSCAASGFTFSSYAMSWVRQAPGKGLEWVSSIASSGYYTDYADSVKGRFTISRDNSKNTLYLQMNSLRAEDTAVYYCAKDADSFDYWGQGTLVTVSSGGGGSGGGGSGGGGSDIQMTQSPSSLSASVGDRVTITCRASQSISSYLNWYQQKPGKAPKLLIYAASYLQSGVPSRFSGSGSGTDFTLTISSLQPEDFATYYCQQAYSAPSTFGQGTKVEIK
notes: also called 4A3抗体; 4A3的噬菌体
Turning to B1, in the assay with SARS-Cov-1-RBD-hFc蛋白, the binding result was “no binding (tested: 5μg/ml coating)”.

B2: 4A3 IgG重组蛋白 (human IgG1) (antibody, V domains shown)
VH: EVQLLESGGGLVQPGGSLRLSCAASGFTFSSYAMSWVRQAPGKGLEWVSSIASSGYYTDYADSVKGRFTISRDNSKNTLYLQMNSLRAEDTAVYYCAKDADSFDYWGQGTLVTVSS
VL: DIQMTQSPSSLSASVGDRVTITCRASQSISSYLNWYQQKPGKAPKLLIYAASYLQSGVPSRFSGSGSGTDFTLTISSLQPEDFATYYCQQAYSAPSTFGQGTKVEIK
As a reminder, the Kd is a measure of binding affinity in units of concentration. Read a low Kd as tighter binding. Take B2: binding in the assay with SARS-Cov-2-RBD-his蛋白 was put at a Kd of 3.62 nM. The “IC50 of inhibition of pseudovirus infection of ACE2-CHO cells (Luciferase活性)” value in assay [1] was found to be 0.28 µg/mL.
